Measurements: patent publication US20110159569A1 (AJOU UNIVERSITY INDUSTRYACADEMIC COOPERATION FOUND, published 2011)

B1: 3D8 VL protein (other)
VL: DLVMSQSPSSLAVSAGEKVTMSCKSSQSLFNSRTRKNYLAWYQQKPGQSPKLLIYWASTRESGVPDRFTGSGSGTDFTLTISSVQAEDLAVYYCKQSYYHMYTFGSGTKLEIK
notes: Isolated light chain variable domain of the anti-nucleic acid antibody 3D8, purified as a single domain and immobilized on a CM5 chip for SPR; also called VL chain; VL domain
B2: 3D8 VH protein (other)
VH: AREVQLQQSGPELVKPGASVKMSCKASGYTFTSYVMHWVKQKPGQGLEWIGYINPYNDGTKYNEKFKGKATLTSDKSSSTAYMELSSLTSEDSAVYYCARGAYKRGYAMDYWGQGTSVTVSS
notes: Isolated heavy chain variable domain of the anti-nucleic acid antibody 3D8, purified as a single domain; also called VH chain; VH domain

Target: the molecule itself
Assay: size exclusion chromatography (HPLC, TSK G3000SW xL), self-association
Method: 0.02 ml of 5 to 20 μM protein was injected into a TSK G3000SW xL column (TosoHaas, Japan), and a phosphate buffered solution (50 mM sodium phosphate/150 mM NaCl, pH7.4) flowed at a rate of 0.7 ml/min. In this case, the chromatogram was obtained by measuring absorbance values at 280 nm.

| Protein | binding result |
| --- | --- |
| B1 | no binding (tested: 5 to 20 µM) |
| B2 | no binding (tested: 5 to 20 µM) |
